# Article PMC10501769 (eLife, 2023)
# Target: the molecule itself
# Experiment: SEC
protein,measurement,value
"His-tagged Rv0158 protein of Mycobacterium tuberculosis H37Rv (natural protein, also called Histidine-tagged Rv0158; hexahistidine-tagged Rv0158 protein) MPSDTSPNGLSRREELLAVATKLFAARGYHGTRMDDVADVIGLNKATVYHYYASKSLILFDIYRQAAEGTLAAVHDDPSWTAREALYQYTVRLLTAIASNPERAAVYFQEQPYITEWFTSEQVAEVREKEQQVYEHVHGLIDRGIASGEFYECDSHVVALGYIGMTLGSYRWLRPSGRRTAKEIAAEFSTALLRGLIRDESIRNQSPLGTRKET",stoichiometry N,2
